We go through three substances from patent US20070081999A1.

Test [1] has as its target human von Willebrand factor (vWF) (human) (UniProt P04275). Description: cell-based or functional assay.
For test [2] the target is unchanged. In words: competition ELISA: inhibition of plasma or purified human vWF binding to coated human collagen type I.
Test [3] has as its target human placental collagen type I (fibrillar) (human) (UniProt P02452). In words: ex vivo ELISA on coated human collagen type I, baboon plasma 24 h after 300 µg/kg mAb 82D6A3, against the pre sample.
Test [4] has the same target. In words: ex vivo ELISA on coated human collagen type I, baboon plasma 48 h after 300 µg/kg mAb 82D6A3, against the pre sample.
The target is the same in test [5]. In words: ex vivo ELISA on coated human collagen type I, baboon plasma 24 h after 600 µg/kg mAb 82D6A3, against the pre sample.
The target is the same in test [6]. Description: ex vivo ELISA on coated human collagen type I, baboon plasma 30 min after 100 µg/kg mAb 82D6A3, against the pre sample.
Test [7] has the same target. Description: ex vivo ELISA on coated human collagen type I, baboon plasma 30 min after 300 µg/kg mAb 82D6A3, against the pre sample.
The target is the same in test [8]. Description: ex vivo ELISA on coated human collagen type I, baboon plasma 60 min after 100 µg/kg mAb 82D6A3, against the pre sample.
The target is the same in test [9]. Description: ex vivo ELISA on coated human collagen type I, baboon plasma 60 min after 300 µg/kg mAb 82D6A3, against the pre sample.
For test [10] the target is unchanged. Description: ex vivo ELISA on coated human collagen type I, baboon plasma 30 min after 600 µg/kg mAb 82D6A3, against the pre sample.
The target is the same in test [11]. Description: ex vivo ELISA on coated human collagen type I, baboon plasma 60 min after 600 µg/kg mAb 82D6A3, against the pre sample.
Test [12] has the same target. Description: ex vivo ELISA on coated human collagen type I, baboon plasma 150 min after 300 µg/kg mAb 82D6A3, against the pre sample.
Test [13] shares this target. Description: ex vivo ELISA on coated human collagen type I, baboon plasma 300 min after 300 µg/kg mAb 82D6A3, against the pre sample.
For test [14] the target is unchanged. In words: ex vivo ELISA on coated human collagen type I, baboon plasma 150 min after 600 µg/kg mAb 82D6A3, against the pre sample.
For test [15] the target is unchanged. In words: ex vivo ELISA on coated human collagen type I, baboon plasma 300 min after 600 µg/kg mAb 82D6A3, against the pre sample.
Test [16] shares this target. Description: ex vivo ELISA on coated human collagen type I, baboon plasma, 100 µg/kg mAb 82D6A3 group, 0 min (before dosing; pre sample set as 100%).
For test [17] the target is unchanged. Description: ex vivo ELISA on coated human collagen type I, baboon plasma, 300 µg/kg mAb 82D6A3 group, 0 min (before dosing; pre sample set as 100%).
Test [18] shares this target. In words: ex vivo ELISA on coated human collagen type I, baboon plasma, 600 µg/kg mAb 82D6A3 group, 0 min (before dosing; pre sample set as 100%).
The target in test [19] is baboon von Willebrand factor (vWF) (baboon). In words: ex vivo occupancy ELISA, baboon plasma, 300 µg/kg, 24 h.
The target is the same in test [20]. In words: ex vivo occupancy ELISA, baboon plasma, 300 µg/kg, 48 h.
Test [21] has the same target. In words: ex vivo occupancy ELISA, baboon plasma, 600 µg/kg, 24 h.
The target is the same in test [22]. Description: ex vivo occupancy ELISA, baboon plasma, 100 µg/kg, 30 min.
The target is the same in test [23]. In words: ex vivo occupancy ELISA, baboon plasma, 100 µg/kg, 60 min.
Test [24] shares this target. In words: ex vivo occupancy ELISA, baboon plasma, 300 µg/kg, 30 min.
Test [25] shares this target. In words: ex vivo occupancy ELISA, baboon plasma, 300 µg/kg, 60 min.
For test [26] the target is unchanged. In words: ex vivo occupancy ELISA, baboon plasma, 600 µg/kg, 30 min.
For test [27] the target is unchanged. Description: ex vivo occupancy ELISA, baboon plasma, 600 µg/kg, 60 min.
For test [28] the target is unchanged. Description: ex vivo occupancy ELISA, baboon plasma, 300 µg/kg, 150 min.
The target is the same in test [29]. In words: ex vivo occupancy ELISA, baboon plasma, 300 µg/kg, 300 min.
The target is the same in test [30]. In words: ex vivo occupancy ELISA, baboon plasma, 600 µg/kg, 150 min.
The target is the same in test [31]. In words: ex vivo occupancy ELISA, baboon plasma, 600 µg/kg, 300 min.
The target is the same in test [32]. In words: ex vivo vWF-occupancy ELISA on baboon plasma against 82D6A3 plasma level.
Test [33] shares this target. Description: ex vivo occupancy ELISA, baboon plasma, 300 µg/kg group, 0 min (before dosing).
Test [34] shares this target. In words: ex vivo occupancy ELISA, baboon plasma, 600 µg/kg group, 0 min (before dosing).
The target is the same in test [35]. In words: ex vivo ELISA on coated human collagen type I, baboon plasma 1 hour after 100 µg/kg mAb 82D6A3.
Test [36] shares this target. Description: ex vivo ELISA on coated human collagen type I, baboon plasma 60 min after 300 µg/kg mAb 82D6A3.
Test [37] has the same target. Description: ex vivo ELISA on coated human collagen type I, baboon plasma 60 min after 600 µg/kg mAb 82D6A3.
For test [38] the target is unchanged. In words: ex vivo occupancy ELISA (vWF captured, bound mAb detected), baboon plasma, 100 µg/kg group, 0 min (before dosing).

Sequence of human von Willebrand factor (vWF) (human) (P04275 764-2813 limits assumed): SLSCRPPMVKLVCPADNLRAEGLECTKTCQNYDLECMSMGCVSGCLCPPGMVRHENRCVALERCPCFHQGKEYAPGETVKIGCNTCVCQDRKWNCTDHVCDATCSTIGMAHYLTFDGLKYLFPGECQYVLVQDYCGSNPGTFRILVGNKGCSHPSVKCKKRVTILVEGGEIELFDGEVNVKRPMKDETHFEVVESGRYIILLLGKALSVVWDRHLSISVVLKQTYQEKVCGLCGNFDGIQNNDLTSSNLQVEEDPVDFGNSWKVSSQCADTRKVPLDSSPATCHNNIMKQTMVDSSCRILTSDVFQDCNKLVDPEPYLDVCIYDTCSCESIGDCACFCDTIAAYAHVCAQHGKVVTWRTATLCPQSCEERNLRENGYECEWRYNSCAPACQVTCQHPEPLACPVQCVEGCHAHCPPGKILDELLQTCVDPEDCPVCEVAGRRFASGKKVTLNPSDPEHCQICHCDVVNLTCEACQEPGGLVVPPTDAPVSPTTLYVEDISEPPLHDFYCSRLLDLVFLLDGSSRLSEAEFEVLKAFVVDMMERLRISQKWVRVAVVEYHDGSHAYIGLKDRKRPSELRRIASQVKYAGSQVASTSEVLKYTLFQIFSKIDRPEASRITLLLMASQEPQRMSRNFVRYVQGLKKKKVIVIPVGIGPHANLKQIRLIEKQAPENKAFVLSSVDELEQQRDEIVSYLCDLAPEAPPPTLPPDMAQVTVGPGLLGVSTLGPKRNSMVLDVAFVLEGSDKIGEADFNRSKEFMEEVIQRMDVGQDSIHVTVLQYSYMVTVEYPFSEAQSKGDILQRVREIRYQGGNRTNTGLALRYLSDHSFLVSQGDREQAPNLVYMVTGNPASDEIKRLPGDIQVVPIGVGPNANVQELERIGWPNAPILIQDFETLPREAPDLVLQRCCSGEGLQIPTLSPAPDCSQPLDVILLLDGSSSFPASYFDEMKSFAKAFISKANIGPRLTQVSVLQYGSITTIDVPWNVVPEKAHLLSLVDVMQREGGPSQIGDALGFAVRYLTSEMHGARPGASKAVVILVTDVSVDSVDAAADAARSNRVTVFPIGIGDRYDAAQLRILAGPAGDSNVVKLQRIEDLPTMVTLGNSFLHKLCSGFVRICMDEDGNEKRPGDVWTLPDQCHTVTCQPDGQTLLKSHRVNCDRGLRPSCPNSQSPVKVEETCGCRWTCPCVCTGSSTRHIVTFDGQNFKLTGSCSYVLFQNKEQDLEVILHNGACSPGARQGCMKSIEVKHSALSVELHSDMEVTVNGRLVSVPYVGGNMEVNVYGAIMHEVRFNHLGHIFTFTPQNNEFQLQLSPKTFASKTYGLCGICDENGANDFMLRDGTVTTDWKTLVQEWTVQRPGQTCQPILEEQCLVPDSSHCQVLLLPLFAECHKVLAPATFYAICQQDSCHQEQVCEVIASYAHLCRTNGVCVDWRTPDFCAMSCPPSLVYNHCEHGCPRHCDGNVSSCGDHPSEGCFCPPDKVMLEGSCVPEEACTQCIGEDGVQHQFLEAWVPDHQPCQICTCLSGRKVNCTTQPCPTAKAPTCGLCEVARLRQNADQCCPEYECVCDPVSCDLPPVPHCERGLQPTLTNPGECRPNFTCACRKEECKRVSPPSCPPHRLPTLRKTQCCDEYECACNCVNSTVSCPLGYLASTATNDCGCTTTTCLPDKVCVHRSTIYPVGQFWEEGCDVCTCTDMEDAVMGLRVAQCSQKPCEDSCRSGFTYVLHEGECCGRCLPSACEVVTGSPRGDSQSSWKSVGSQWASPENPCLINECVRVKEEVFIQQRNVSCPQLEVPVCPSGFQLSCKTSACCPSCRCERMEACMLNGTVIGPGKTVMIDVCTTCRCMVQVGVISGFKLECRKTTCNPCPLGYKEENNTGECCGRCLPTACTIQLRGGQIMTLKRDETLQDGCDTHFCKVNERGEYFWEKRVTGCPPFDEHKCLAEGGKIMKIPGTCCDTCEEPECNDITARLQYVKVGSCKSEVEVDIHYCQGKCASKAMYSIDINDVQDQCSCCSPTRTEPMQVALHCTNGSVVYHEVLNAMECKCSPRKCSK
Sequence of human placental collagen type I (fibrillar) (human) (P02452 162-1218 limits assumed, chain 1 of 2): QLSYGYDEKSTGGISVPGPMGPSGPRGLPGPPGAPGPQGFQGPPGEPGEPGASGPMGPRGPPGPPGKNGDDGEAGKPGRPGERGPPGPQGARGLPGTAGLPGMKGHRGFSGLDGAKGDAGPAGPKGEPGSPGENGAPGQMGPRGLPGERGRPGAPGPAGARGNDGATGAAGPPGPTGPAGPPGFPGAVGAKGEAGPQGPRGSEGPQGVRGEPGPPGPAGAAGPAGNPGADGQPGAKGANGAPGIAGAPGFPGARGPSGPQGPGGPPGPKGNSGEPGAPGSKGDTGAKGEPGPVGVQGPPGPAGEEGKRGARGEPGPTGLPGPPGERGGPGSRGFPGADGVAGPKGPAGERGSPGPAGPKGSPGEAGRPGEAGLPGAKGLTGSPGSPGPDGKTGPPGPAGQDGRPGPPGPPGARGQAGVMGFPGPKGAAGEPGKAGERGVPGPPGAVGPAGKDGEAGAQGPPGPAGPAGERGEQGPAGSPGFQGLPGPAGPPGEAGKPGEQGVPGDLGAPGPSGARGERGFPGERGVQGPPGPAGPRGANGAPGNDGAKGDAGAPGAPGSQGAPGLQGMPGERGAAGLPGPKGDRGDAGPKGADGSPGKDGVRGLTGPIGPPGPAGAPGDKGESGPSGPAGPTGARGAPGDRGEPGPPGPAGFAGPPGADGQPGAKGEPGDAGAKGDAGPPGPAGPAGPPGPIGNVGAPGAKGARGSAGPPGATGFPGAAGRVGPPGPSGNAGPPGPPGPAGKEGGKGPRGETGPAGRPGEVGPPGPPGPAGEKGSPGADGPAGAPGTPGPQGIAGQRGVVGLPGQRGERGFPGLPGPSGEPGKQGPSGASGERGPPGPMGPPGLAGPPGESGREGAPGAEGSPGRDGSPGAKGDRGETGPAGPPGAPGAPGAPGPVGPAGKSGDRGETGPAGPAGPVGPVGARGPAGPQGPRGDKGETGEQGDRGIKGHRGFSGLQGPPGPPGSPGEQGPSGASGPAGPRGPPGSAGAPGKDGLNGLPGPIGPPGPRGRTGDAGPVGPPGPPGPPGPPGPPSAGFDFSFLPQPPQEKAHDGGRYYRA
Sequence of human placental collagen type I (fibrillar) (human) (P08123 80-1119 limits assumed, chain 2 of 2, further chain): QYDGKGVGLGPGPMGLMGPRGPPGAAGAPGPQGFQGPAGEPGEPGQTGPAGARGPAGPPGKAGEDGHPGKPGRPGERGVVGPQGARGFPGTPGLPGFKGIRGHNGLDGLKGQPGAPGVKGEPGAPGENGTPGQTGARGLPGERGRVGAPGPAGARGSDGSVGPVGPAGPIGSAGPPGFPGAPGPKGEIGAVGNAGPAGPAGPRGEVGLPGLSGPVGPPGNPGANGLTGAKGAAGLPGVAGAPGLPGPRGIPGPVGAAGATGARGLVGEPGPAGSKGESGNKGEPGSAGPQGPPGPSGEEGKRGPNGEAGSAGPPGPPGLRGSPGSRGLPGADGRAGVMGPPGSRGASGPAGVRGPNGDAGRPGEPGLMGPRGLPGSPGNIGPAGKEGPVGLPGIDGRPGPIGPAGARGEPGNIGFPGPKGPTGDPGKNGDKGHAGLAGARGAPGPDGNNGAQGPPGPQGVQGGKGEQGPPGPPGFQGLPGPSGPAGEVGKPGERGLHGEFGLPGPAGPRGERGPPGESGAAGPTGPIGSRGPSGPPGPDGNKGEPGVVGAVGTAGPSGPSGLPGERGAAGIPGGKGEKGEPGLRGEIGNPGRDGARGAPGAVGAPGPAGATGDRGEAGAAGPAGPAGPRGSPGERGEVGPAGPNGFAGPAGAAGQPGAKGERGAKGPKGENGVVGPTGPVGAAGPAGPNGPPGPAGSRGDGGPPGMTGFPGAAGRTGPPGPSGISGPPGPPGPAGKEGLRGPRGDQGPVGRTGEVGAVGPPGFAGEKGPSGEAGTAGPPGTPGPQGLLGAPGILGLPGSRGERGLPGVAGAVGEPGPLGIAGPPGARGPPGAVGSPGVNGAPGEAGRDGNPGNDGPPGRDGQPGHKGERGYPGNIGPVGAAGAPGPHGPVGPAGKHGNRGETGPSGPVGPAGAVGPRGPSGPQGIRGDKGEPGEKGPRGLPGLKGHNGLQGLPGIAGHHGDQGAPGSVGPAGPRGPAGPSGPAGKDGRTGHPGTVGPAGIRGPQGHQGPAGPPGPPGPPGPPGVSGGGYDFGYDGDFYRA

As to 82D6A3 F(ab) fragment (Fab), the platelet deposition onto human collagen type I in flow, shear rate 1300 s^-1 in test [1] came out at 10 µg/mL. In addition, the IC50 in [2] amounted to 1 µg/mL.

Turning to “baboon von Willebrand factor (vWF), A0A096N8H2 764-2813”, the collagen binding (%) in test [3] was 91%; in test [4], 93%; in [5], 45%; in test [6] it was 64%; in test [7] it was 4%; in [8], 69%. The collagen binding (%) in [9] came to 4%; in test [10], 4%; in test [11], 3.5%; in [12] it was 4%; in [13] it was 4%; in test [14], 3.52%. Also, the collagen binding (%) was 4% in test [15], 101% in [16], 101% in test [17] and 100% in [18].

The substance “murine anti-human vWF monoclonal antibody mAb 82D6A3” had a platelet deposition onto human collagen type I in flow, shear rate 1300 s^-1 in [1] of 1 to 5 µg/mL. Moreover, the vWF occupancy (%) in test [19] was 74%; in test [20], 63%; in test [21], 88%; in test [22], 80%; in [23], 80%; in test [24] it was 102%. Further, the vWF occupancy (%) in test [25] was 99%; in test [26], 96%; in test [27], 96%; in test [28] it was 101%; in [29], 94%; in test [30], 97%. The vWF occupancy (%) in test [31] was found to be 97%; in test [33] it was 2.3%; in test [34], 6.9%; in [38], 2.3%. In [32], this substance registered a plasma level from which vWF-occupancy is maximal of 1 µg/mL. The substance also yielded an ex vivo inhibition of the vWF-collagen binding (%) in test [35] of 31%. For the same substance, the ex vivo inhibition of the vWF-collagen interaction (%) in test [36] and in [37] was 96% throughout. In test [2], this substance showed an IC50 of 0.02 µg/mL.
